# Measurements from PMC13079258, “Impact of Ser81 phosphorylation on alanine: glyoxylate aminotransferase associated with Primary hyperoxaluria type I” (Molecular Biomedicine, 2026).
# T1: AGT (alanine:glyoxylate aminotransferase 1), AGT WT (Homo sapiens, UniProt P21549)
# T1 construct: gene AGXT; apo-form prepared with L-alanine; dimer
# T1 sequence (P21549 1-392): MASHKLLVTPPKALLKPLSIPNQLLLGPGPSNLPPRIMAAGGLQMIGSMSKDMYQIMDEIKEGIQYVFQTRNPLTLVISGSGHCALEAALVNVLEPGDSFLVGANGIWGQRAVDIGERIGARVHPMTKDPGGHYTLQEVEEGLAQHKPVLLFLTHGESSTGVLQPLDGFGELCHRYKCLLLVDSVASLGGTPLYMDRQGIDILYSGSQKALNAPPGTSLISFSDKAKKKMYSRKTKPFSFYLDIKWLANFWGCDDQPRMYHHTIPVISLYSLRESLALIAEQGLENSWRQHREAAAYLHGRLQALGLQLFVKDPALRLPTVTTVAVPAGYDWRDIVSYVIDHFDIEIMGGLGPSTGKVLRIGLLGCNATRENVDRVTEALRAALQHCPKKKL
# Molecular target: T1, AGT (alanine:glyoxylate aminotransferase 1), AGT WT
# Experiment: absorption and near-UV/visible CD after L-alanine; 30-kDa filtration for released PMP
# Assay type: biochemical
# Conditions: 20 uM holo-AGT, 200 mM L-alanine, 25 C, HEPES 20 mM, NaCl 200 mM, pH 7.4
row,Molecule,absorption and near-UV/visible CD after L-alanine; 30-kDa filtration for release
1,Cc1ncc(COP(=O)(O)O)c(CN)c1O [PMP],"the CD signal associated with PMP formation, clearly present in S81 and A81 sets"

# Molecular target: the molecule itself
# Experiment: dynamic light scattering; 10 µM AGT as purified, 25 °C, 20 mM HEPES (sodium salt), 200 mM NaCl, pH 7.4; hydrodynamic radius assuming spherical particles (Stokes-Einstein)
# Conditions: not given
row,Molecule,stoichiometry N
1,"Alanine:glyoxylate aminotransferase (AGT) WT (enzyme, human, UniProt P21549 1-392, looked up, also called wild-type; major allele) MASHKLLVTPPKALLKPLSIPNQLLLGPGPSNLPPRIMAAGGLQMIGSMSKDMYQIMDEIKEGIQYVFQTRNPLTLVISGSGHCALEAALVNVLEPGDSFLVGANGIWGQRAVDIGERIGARVHPMTKDPGGHYTLQEVEEGLAQHKPVLLFLTHGESSTGVLQPLDGFGELCHRYKCLLLVDSVASLGGTPLYMDRQGIDILYSGSQKALNAPPGTSLISFSDKAKKKMYSRKTKPFSFYLDIKWLANFWGCDDQPRMYHHTIPVISLYSLRESLALIAEQGLENSWRQHREAAAYLHGRLQALGLQLFVKDPALRLPTVTTVAVPAGYDWRDIVSYVIDHFDIEIMGGLGPSTGKVLRIGLLGCNATRENVDRVTEALRAALQHCPKKKL",2
2,"AGT LM-p.I244T p.S81D (enzyme, human, UniProt P21549 1-392, looked up, Alanine:glyoxylate aminotransferase (AGT), human, LM-p.I244T background with the phosphomimetic S81D; site-directed mutant of the pCOLDII construct of m4; also called set D81) MASHKLLVTPLKALLKPLSIPNQLLLGPGPSNLPPRIMAAGGLQMIGSMSKDMYQIMDEIKEGIQYVFQTRNPLTLVISGDGHCALEAALVNVLEPGDSFLVGANGIWGQRAVDIGERIGARVHPMTKDPGGHYTLQEVEEGLAQHKPVLLFLTHGESSTGVLQPLDGFGELCHRYKCLLLVDSVASLGGTPLYMDRQGIDILYSGSQKALNAPPGTSLISFSDKAKKKMYSRKTKPFSFYLDTKWLANFWGCDDQPRMYHHTIPVISLYSLRESLALIAEQGLENSWRQHREAAAYLHGRLQALGLQLFVKDPALRLPTVTTVAVPAGYDWRDIVSYVMDHFDIEIMGGLGPSTGKVLRIGLLGCNATRENVDRVTEALRAALQHCPKKKL",2
3,"AGT LM-p.G170R (enzyme, human, UniProt P21549 1-392, looked up, Alanine:glyoxylate aminotransferase (AGT), human, minor allele (LM) with the PH1-associated variant p.G170R; also called set S81) MASHKLLVTPLKALLKPLSIPNQLLLGPGPSNLPPRIMAAGGLQMIGSMSKDMYQIMDEIKEGIQYVFQTRNPLTLVISGSGHCALEAALVNVLEPGDSFLVGANGIWGQRAVDIGERIGARVHPMTKDPGGHYTLQEVEEGLAQHKPVLLFLTHGESSTGVLQPLDGFRELCHRYKCLLLVDSVASLGGTPLYMDRQGIDILYSGSQKALNAPPGTSLISFSDKAKKKMYSRKTKPFSFYLDIKWLANFWGCDDQPRMYHHTIPVISLYSLRESLALIAEQGLENSWRQHREAAAYLHGRLQALGLQLFVKDPALRLPTVTTVAVPAGYDWRDIVSYVMDHFDIEIMGGLGPSTGKVLRIGLLGCNATRENVDRVTEALRAALQHCPKKKL",2
4,"AGT LM p.S81D (enzyme, human, UniProt P21549 1-392, looked up, Alanine:glyoxylate aminotransferase (AGT), human, minor allele (LM) background with the phosphomimetic S81D; site-directed mutant of the pCOLDII construct of m2; also called set D81) MASHKLLVTPLKALLKPLSIPNQLLLGPGPSNLPPRIMAAGGLQMIGSMSKDMYQIMDEIKEGIQYVFQTRNPLTLVISGDGHCALEAALVNVLEPGDSFLVGANGIWGQRAVDIGERIGARVHPMTKDPGGHYTLQEVEEGLAQHKPVLLFLTHGESSTGVLQPLDGFGELCHRYKCLLLVDSVASLGGTPLYMDRQGIDILYSGSQKALNAPPGTSLISFSDKAKKKMYSRKTKPFSFYLDIKWLANFWGCDDQPRMYHHTIPVISLYSLRESLALIAEQGLENSWRQHREAAAYLHGRLQALGLQLFVKDPALRLPTVTTVAVPAGYDWRDIVSYVMDHFDIEIMGGLGPSTGKVLRIGLLGCNATRENVDRVTEALRAALQHCPKKKL",2
5,"AGT LM-p.I244T (enzyme, human, UniProt P21549 1-392, looked up, Alanine:glyoxylate aminotransferase (AGT), human, minor allele (LM) with the PH1-associated variant p.I244T; also called set S81) MASHKLLVTPLKALLKPLSIPNQLLLGPGPSNLPPRIMAAGGLQMIGSMSKDMYQIMDEIKEGIQYVFQTRNPLTLVISGSGHCALEAALVNVLEPGDSFLVGANGIWGQRAVDIGERIGARVHPMTKDPGGHYTLQEVEEGLAQHKPVLLFLTHGESSTGVLQPLDGFGELCHRYKCLLLVDSVASLGGTPLYMDRQGIDILYSGSQKALNAPPGTSLISFSDKAKKKMYSRKTKPFSFYLDTKWLANFWGCDDQPRMYHHTIPVISLYSLRESLALIAEQGLENSWRQHREAAAYLHGRLQALGLQLFVKDPALRLPTVTTVAVPAGYDWRDIVSYVMDHFDIEIMGGLGPSTGKVLRIGLLGCNATRENVDRVTEALRAALQHCPKKKL",2
6,"AGT LM-p.G170R p.S81D (enzyme, human, UniProt P21549 1-392, looked up, Alanine:glyoxylate aminotransferase (AGT), human, LM-p.G170R background with the phosphomimetic S81D; site-directed mutant of the pCOLDII construct of m3; also called set D81) MASHKLLVTPLKALLKPLSIPNQLLLGPGPSNLPPRIMAAGGLQMIGSMSKDMYQIMDEIKEGIQYVFQTRNPLTLVISGDGHCALEAALVNVLEPGDSFLVGANGIWGQRAVDIGERIGARVHPMTKDPGGHYTLQEVEEGLAQHKPVLLFLTHGESSTGVLQPLDGFRELCHRYKCLLLVDSVASLGGTPLYMDRQGIDILYSGSQKALNAPPGTSLISFSDKAKKKMYSRKTKPFSFYLDIKWLANFWGCDDQPRMYHHTIPVISLYSLRESLALIAEQGLENSWRQHREAAAYLHGRLQALGLQLFVKDPALRLPTVTTVAVPAGYDWRDIVSYVMDHFDIEIMGGLGPSTGKVLRIGLLGCNATRENVDRVTEALRAALQHCPKKKL",2
7,"AGT WT p.S81D (enzyme, human, UniProt P21549 1-392, looked up, Alanine:glyoxylate aminotransferase (AGT), human, wild-type background with the phosphomimetic S81D; site-directed mutant of the pCOLDII construct of m1; also called set D81) MASHKLLVTPPKALLKPLSIPNQLLLGPGPSNLPPRIMAAGGLQMIGSMSKDMYQIMDEIKEGIQYVFQTRNPLTLVISGDGHCALEAALVNVLEPGDSFLVGANGIWGQRAVDIGERIGARVHPMTKDPGGHYTLQEVEEGLAQHKPVLLFLTHGESSTGVLQPLDGFGELCHRYKCLLLVDSVASLGGTPLYMDRQGIDILYSGSQKALNAPPGTSLISFSDKAKKKMYSRKTKPFSFYLDIKWLANFWGCDDQPRMYHHTIPVISLYSLRESLALIAEQGLENSWRQHREAAAYLHGRLQALGLQLFVKDPALRLPTVTTVAVPAGYDWRDIVSYVIDHFDIEIMGGLGPSTGKVLRIGLLGCNATRENVDRVTEALRAALQHCPKKKL",2
8,"AGT WT p.S81A (enzyme, human, UniProt P21549 1-392, looked up, Alanine:glyoxylate aminotransferase (AGT), human, wild-type background with S81A; site-directed mutant of the pCOLDII construct of m1; also called set A81) MASHKLLVTPPKALLKPLSIPNQLLLGPGPSNLPPRIMAAGGLQMIGSMSKDMYQIMDEIKEGIQYVFQTRNPLTLVISGAGHCALEAALVNVLEPGDSFLVGANGIWGQRAVDIGERIGARVHPMTKDPGGHYTLQEVEEGLAQHKPVLLFLTHGESSTGVLQPLDGFGELCHRYKCLLLVDSVASLGGTPLYMDRQGIDILYSGSQKALNAPPGTSLISFSDKAKKKMYSRKTKPFSFYLDIKWLANFWGCDDQPRMYHHTIPVISLYSLRESLALIAEQGLENSWRQHREAAAYLHGRLQALGLQLFVKDPALRLPTVTTVAVPAGYDWRDIVSYVIDHFDIEIMGGLGPSTGKVLRIGLLGCNATRENVDRVTEALRAALQHCPKKKL",2
9,"AGT LM-p.G170R p.S81A (enzyme, human, UniProt P21549 1-392, looked up, Alanine:glyoxylate aminotransferase (AGT), human, LM-p.G170R background with S81A; site-directed mutant of the pCOLDII construct of m3; also called set A81) MASHKLLVTPLKALLKPLSIPNQLLLGPGPSNLPPRIMAAGGLQMIGSMSKDMYQIMDEIKEGIQYVFQTRNPLTLVISGAGHCALEAALVNVLEPGDSFLVGANGIWGQRAVDIGERIGARVHPMTKDPGGHYTLQEVEEGLAQHKPVLLFLTHGESSTGVLQPLDGFRELCHRYKCLLLVDSVASLGGTPLYMDRQGIDILYSGSQKALNAPPGTSLISFSDKAKKKMYSRKTKPFSFYLDIKWLANFWGCDDQPRMYHHTIPVISLYSLRESLALIAEQGLENSWRQHREAAAYLHGRLQALGLQLFVKDPALRLPTVTTVAVPAGYDWRDIVSYVMDHFDIEIMGGLGPSTGKVLRIGLLGCNATRENVDRVTEALRAALQHCPKKKL",2
10,"AGT LM-p.I244T p.S81A (enzyme, human, UniProt P21549 1-392, looked up, Alanine:glyoxylate aminotransferase (AGT), human, LM-p.I244T background with S81A; site-directed mutant of the pCOLDII construct of m4; also called set A81) MASHKLLVTPLKALLKPLSIPNQLLLGPGPSNLPPRIMAAGGLQMIGSMSKDMYQIMDEIKEGIQYVFQTRNPLTLVISGAGHCALEAALVNVLEPGDSFLVGANGIWGQRAVDIGERIGARVHPMTKDPGGHYTLQEVEEGLAQHKPVLLFLTHGESSTGVLQPLDGFGELCHRYKCLLLVDSVASLGGTPLYMDRQGIDILYSGSQKALNAPPGTSLISFSDKAKKKMYSRKTKPFSFYLDTKWLANFWGCDDQPRMYHHTIPVISLYSLRESLALIAEQGLENSWRQHREAAAYLHGRLQALGLQLFVKDPALRLPTVTTVAVPAGYDWRDIVSYVMDHFDIEIMGGLGPSTGKVLRIGLLGCNATRENVDRVTEALRAALQHCPKKKL",2
11,"AGT LM (minor allele, p.P11L and p.I340M) (enzyme, human, UniProt P21549 1-392, looked up, Alanine:glyoxylate aminotransferase (AGT), human, common polymorphic minor allele (LM); also called set S81) MASHKLLVTPLKALLKPLSIPNQLLLGPGPSNLPPRIMAAGGLQMIGSMSKDMYQIMDEIKEGIQYVFQTRNPLTLVISGSGHCALEAALVNVLEPGDSFLVGANGIWGQRAVDIGERIGARVHPMTKDPGGHYTLQEVEEGLAQHKPVLLFLTHGESSTGVLQPLDGFGELCHRYKCLLLVDSVASLGGTPLYMDRQGIDILYSGSQKALNAPPGTSLISFSDKAKKKMYSRKTKPFSFYLDIKWLANFWGCDDQPRMYHHTIPVISLYSLRESLALIAEQGLENSWRQHREAAAYLHGRLQALGLQLFVKDPALRLPTVTTVAVPAGYDWRDIVSYVMDHFDIEIMGGLGPSTGKVLRIGLLGCNATRENVDRVTEALRAALQHCPKKKL",2
12,"AGT LM p.S81A (enzyme, human, UniProt P21549 1-392, looked up, Alanine:glyoxylate aminotransferase (AGT), human, minor allele (LM) background with S81A; site-directed mutant of the pCOLDII construct of m2; also called set A81) MASHKLLVTPLKALLKPLSIPNQLLLGPGPSNLPPRIMAAGGLQMIGSMSKDMYQIMDEIKEGIQYVFQTRNPLTLVISGAGHCALEAALVNVLEPGDSFLVGANGIWGQRAVDIGERIGARVHPMTKDPGGHYTLQEVEEGLAQHKPVLLFLTHGESSTGVLQPLDGFGELCHRYKCLLLVDSVASLGGTPLYMDRQGIDILYSGSQKALNAPPGTSLISFSDKAKKKMYSRKTKPFSFYLDIKWLANFWGCDDQPRMYHHTIPVISLYSLRESLALIAEQGLENSWRQHREAAAYLHGRLQALGLQLFVKDPALRLPTVTTVAVPAGYDWRDIVSYVMDHFDIEIMGGLGPSTGKVLRIGLLGCNATRENVDRVTEALRAALQHCPKKKL",2
